Test results taken from the DeepSol protein solubility set.

assay: soluble on expression in E. coli; label from the status in PepcDB or PDB records

Question: For “GPGSMERNPAHPLDATAKLPVRQKEVTFDSLCVNADDRFVEGLSGKSEERRGFRPNTKLYAANAARTRGRTGGASDLGFTESLPTLNEVIGEEKISHLGRLRARPPRAAEGSTDVIPVARVKAKSSLTRPVHATPTSIPSTRSLWVEGSSVLNQDVGHASAALTHLSDCVAQERRLKVEWEAARLAKIRALRAVVKVFMQSFIDRGSFARSTSVGGKVMSDTLAVARCSVITNTLVGTVQNFMRAFRSRRLCAARGPVSGLQLFPNIAGQESDRFTLSLYSSAPGGAESSVNESYVSPNHSVSDYLEEEEVSRIKQLYFDYFDCEAVSISSAVASGSDMSIFAYSAASSISRPSSPVSRGGDHSSFSHCASTTM”, which “soluble on expression in E. coli” value is on record?
Answer: not soluble

Question: Which “soluble on expression in E. coli” value does the source give for “MSLKITILAVGKLKEKYWKQAIAEYEKRLGPYTKIDIIEVPDEKAPENMSDKEIEQVKEKEGQRILAKIKPQSTVITLEIQGKMLSSEGLAQELNQRMTQGQSDFVFVIGGSNGLHKDVLQRSNYALSFSKMTFPHQMMRVVLIEQVYRAFKIMRGEAYHK” here?
Answer: soluble

Question: With “GSHMVKDTLFSTPIAKLGDFIFDENVAEVFPDMIQRSVPGYSNIITAIGMLAERFVTADSNVYDLGCSRGAATLSARRNINQPNVKIIGIDNSQPMVERCRQHIAAYHSEIPVEILCNDIRHVEIKNASMVILNFTLQFLPPEDRIALLTKIYEGLNPNGVLVLSEKFRFEDTKINHLLIDLHHQFKRANGYSELEVSQKRTALENVMRTDSIETHKVRLKNVGFSQVELWFQCFNFGSMIAVK” as the sequence, how does the “soluble on expression in E. coli” value read?
Answer: soluble

Question: Which “soluble on expression in E. coli” value does the source give for “MAELRETLERLASFRPQNYYVSTLYLRLMPEDRQDNKYLRVYKDLVKKKEKDLENLNLDKEVLDSIRGDIKNIQDFLSDPKNLYNCRGIAIFSCSKLGLFEYVKLPYVYRNRLMFSPDPLVREIAAIDEEFGRVAVLLLDRKHIRYFLMDITGIEEKLDFLEPMTTRAHRFHSGGALLKGAEGTFQYRMPARGAAPNVVQHGMGEWRFHMRLREEWHRILKLASDALFEEWKRIHFDKLIIGGFIEEGLREIENFLHPYVKEKLVGYIEITPEEATPHQVWEKALDLLWQKDREQEKEIIKELEELKGWGLAVNGTSEVLEMLAIGNVRTLILPEDFEKPGYLCPQSHLAFLKPECPLPEEKPIPVSDVVDEALEEALDQRATIEVIIDKELQKKVDGLAAFLRFKL” here?
Answer: not soluble

Question: With “MGSDKIHHHHHHAQVKTYKYRVNFRDKAETTYALDKPSAYLSERALERRMKQGLPVDSTDIPVCRSYIDMLVGKGAQLVSKSKWNNTVVVQVSDTSVIDKVAALPFVTAVRKVWTAPDSIPARNANRKKEVTNRVTKSNNYYGDAWRQIAVHHGDSLHAAGFRGKGMQIAVIDAGFYNADEISVFKGMDLLGTRDFVNSHSDIYAENYHGMKVLSCMAANKPNVLVGTAPEASYWLLRSEDDDTEQPVEEDYWAEALEFADSVGVDVVNTSLGYYEFDDTTMNYRYRDLDGHYSLMSHSASLAADKGLVLVCSAGNSGRGTWKKITPPGDAENVITVGAADRNLVNADFSSVGNTTDGRVKPDVMAVGVASAVAGNDGTVSHANGTSFASPTLCGLVACFWQACPWLTAKQVVEAVRNAGDRKEYPDNIYGYGVPDIWKACQIELEKKK” as the sequence, how does the “soluble on expression in E. coli” value read?
Answer: not soluble

Question: Which “soluble on expression in E. coli” value does the source give for “MEDLNFEERGSTQIPASLQQHFSAKLGRQNELEKTPSRGGLGLVVNSSKTPGGKSLQSLASACKVPPSTKKNTIPIAFECYEDETDDQIADVATIKKTEKHPCSPIDTANRCETFDSLAADIEDDMLNLEDQDVVLSEDRPYGDVIDPAESEAEALAELGVEEWDSYPPIDPASRIGDDFNYVLRTEDFAEEGDVKLEETRHRTVIADIDEVKMSKAERNELFSMLADDLDSYDLLAEEANLPL” here?
Answer: not soluble

Question: Which “soluble on expression in E. coli” value does the source give for “MRGSHHHHHHGSDLGRKLLEAARAGQDDEVRILMANGADVNAADNTGTTPLHLAAYSGHLEIVEVLLKHGADVDASDVFGYTPLHLAAYWGHLEIVEVLLKNGADVNAMDSDGMTPLHLAAKWGYLEIVEVLLKHGADVNAQDKFGKTAFDISIDNGNEDLAEILQKLN” here?
Answer: soluble

Question: For “MAVLKIISWNVNGLRAVHRKGFLKWFMEEKPDILCLQEIKAAPEQLPRKLRHVEGYRSFFTPAERKGYSGVAMYTKVPPSSLREGFGVERFDTEGRIQIADFDDFLLYNIYFPNGKMSEERLKYKLEFYDAFLEDVNRERDSGRNVIICGNFNTAHREIDLARPKENSNVSGFLPVERAWIDKFIENGYVDTFRMFNSDPGQYTWWSYRTRARERNVGWRLDYFFVNEEFKGKVKRSWILSDVMGSDHCPIGLEIELLEHHHHHH”, which “soluble on expression in E. coli” value is on record?
Answer: soluble

Question: With “MSCQGPVCTNLGLKPGQRLTVKGIIAPNAKSFVMNLGKDSTHLGLHFNPRFDAHGDVNLIVCNSKKMEEWGTEQRETVFPFQKGAPIEITFSINPSDLTVHLPGHQFSFPNRLGLSVFDYFDTHGDFTLRSVSWE” as the sequence, how does the “soluble on expression in E. coli” value read?
Answer: soluble

Question: With “NGQIMYRIVTVQDSTERLESQSALRESEERFRSVVESAPDAIFIQTGGRFAYLNHSAIALFGASKAEEILGRRVADQIHPDYRDLVAERIRLLNERQ” as the sequence, how does the “soluble on expression in E. coli” value read?
Answer: not soluble

Question: With “MSNSDEQILQFYVEHFEKALEKTQNVLLEFAESPLNHLKPTKRATDAQAFQFNSTCPGVENLNKLEREALFQQSSFVNLWLNLAYTCSKSSLSFWDSRDQGSEGGKLEVFMPRLHDSLTTEFHRIHLDPQEFATICAITTWKIHQWGTVEANTVAGQHYLAVIKELNNHHKKTTTMRDFERALRITEIISLLVPIGRMLQEVKTLYETLGIKDDGRE” as the sequence, how does the “soluble on expression in E. coli” value read?
Answer: not soluble

Question: Which “soluble on expression in E. coli” value does the source give for “MFKKLFGKGKEVQKDIAIYAPLTGEFVKIEDIPDPVFAQKMMGEGFGINPTEGEVVSPIAGRVDNVFPTKHAIGLKADNGLELLVHIGLDTVQLDGEGFEVLVSSGDEVNVGDPLVRFNLEYINNNAKSVISPIIITNTDQAASINIYDENAVIKGETKVIDVTMN” here?
Answer: not soluble

Question: For “GMSKPAITLWSDAHFFSPYVLSAWVALQEKGLSFHIKTIDLDSGEHLQPTWQGYGQTRRVPLLQIDDFELSESSAIAEYLEDRFAPPTWERIYPLDLENRARARQIQAWLRSDLMPIREERPTDVVFAGAKKAPLTAEGKASAEKLFAMAEHLLVLGQPNLFGEWCIADTDLALMINRLVLHGDEVPERLVDYATFQWQRASVQRFIALSAKQSG”, which “soluble on expression in E. coli” value is on record?
Answer: soluble

Question: With “MCTTCGCAEGNLYIEGDEHNPHSAFRSAPFAPAARPALNITGIKTPDFAPSQTAEGDLHYGHGEAGTHAPGMSQRRMLEVEIDVLDKNNRLAERNRARFAARQQLVLNLVSSPGSGKTTLLTETLMKLKDRVPCAVIEGDQQTVNDAARIRATGTPAIQVNTGKGCHLDAQMIADAAPRLPLDDHGILFIENVGNLVCPASFDLGEKHKVAVLSVTEGEDKPLKYPHMFAAASLMLLNKVDLLPYLNFDVEKCIASAREVNPEIEIILISATSGEGMDQWLAWLEAQRCA” as the sequence, how does the “soluble on expression in E. coli” value read?
Answer: not soluble

Question: Which “soluble on expression in E. coli” value does the source give for “MTRLPDIKKEVRFNAPIEKVWEAVSTSEGLAFWFMENDLKAETGHHFHLQSPFGPSPCQVTDVERPIKLSFTWDTDGWSVTFHLKEEENGTIFTIVHSGWKQGDTKVEKAGAESAVVHERMDRGWHDLVNERLRQIVELEHHHHHH” here?
Answer: soluble

Question: With “MGSDKIHHHHHHMSLKAKLARKFVYAVFPDVRKYTSIKPAFENSPDSPEGRLVPEVVALYGKPGVHILKMALVLPYLVGTAYYARKSVTSVRRNPGKGKKTAPPEFFEELESYAKSLGVLKVGYTKLTPELVFSNRAVLFENAIVLIGEMRKKEIAKAPGVRAGMEVWRTYYRLTRAAYKIAEFLRERGYNAQPDPAVGRSTNFPLLAQKAGLDHIGKHGLLITPENGPSVRIGAVYTDLELPYTDERVREHGWIPHFCDRCNACVRACPAQAIYITPRRENGREVHIDYKRCAVIFSRTLGCSICVKECTFTKGSYEKIKRVHEKIRNR” as the sequence, how does the “soluble on expression in E. coli” value read?
Answer: not soluble

Question: Which “soluble on expression in E. coli” value does the source give for “MAHHHHHHMRRSVIRTRKEFLERKQHERVHEAIHARKEQFRSAVETATPLPGHLKKDALALKKFTELDDAQTRNLTTTVDDEYANAGQEDPHVLVTTSRNASQKLLEFAKEVRLIVPNAVRMNRGNLSVHQLMDAARKENYTDVLVLQESQGVPDSLIVSHLPLGPTVTFTIHNLVARHDIDGVGTMSEQYPHLVFENFSTKLGIRIKDVLRYLFPVPKADASRVLTFDNENDFISFRHHTFKKEKGKKQVELTEVGPRFELTPYRIVLGTLEMDDAETEWVLQPYMNTAKKRRLL” here?
Answer: soluble
